Experiments:
[1] = system: CNA gamma C-terminal fragment; experiment: Yeast two-hybrid assays of R5G42 mutants; type: binding, human; conditions: plasmids pSH18-34, pJK103, pRB18-40
Description: The capacity of R5G42 mutants having a one amino acid change as compared to R5G42 to bind CNA beta and gamma C-Terminal fragments (FIG. 3b) and NS5A-TP2 was tested in yeast two-hybrid assays. CNA beta and gamma C-Terminal fragments and NS5A-TP2 were cloned in three different vectors (pSH18-34, pJK103 and pRB18-40). These three plasmids differ from each other in the level of sensitivity of their promoter, pSH18-34 having the highest sensitivity and pRB18-40 having the lowest.
(§1) The inventors explored the ability of R5G42 mutants having a one amino acid change as compared to R5G42, to bind to CNA beta and gamma C-Terminal fragments (FIG. 3b) and to NS5A-TP2. To this end, they proceeded to yeast-two hybrid assays as in example 3. CNA beta and gamma C-Terminal fragments (FIG. 3b) and NS5A-TP2 were cloned in three different plasmids (pSH18-34, pJK103 and pRB18-40), which differed from each other in the level of sensitivity of their promoter to the bait/prey complex formation, pSH18-34 having the highest sensitivity and pRB18-40 having the lowest.

CNA = experiment: Yeast two-hybrid assay; type: binding, human; conditions: point mutant
Excerpt: (A) Yeast two-hybrid mating assay. TB50α yeast were co-transformed with pSH18-34T (bearing a lacZ reporter gene) and plasmids directing the expression of LexA alone or in fusion with peptide aptamers R5G42, R7G44 or R5G52. MB210a yeast were transformed with the selected cDNA library plasmids directing the expression of CNAβ, CNAγ, and NS5ATP2 truncated proteins. To obtain negative controls, MB210a yeast were also transformed with the empty prey plasmid (pJG4-5) and with pJG4-5 directing the expression of Ras and FKBP12 prey proteins. To obtain a positive control, MB210a yeast were transformed with pJG4-5 directing the expression of RG22 peptide aptamer prey fusion protein that interacts with LexA in the context of most LexA fusion proteins.
The inventors set out to map the R5G42 binding site on CNA. The CNA interacting clones selected in the yeast two-hybrid experiments corresponded to the carboxy-terminal regions of the beta and gamma isoforms, encompassing the calmodulin-binding domain and the auto-inhibitory domain (see FIG. 3B). […] The LexA-R5G52 bait protein may thus not be properly expressed and/or folded in this yeast two-hybrid setting.
as §1
The 5′ end of RH6 (upper case) matches part of the HA epitope tag and the 5′ ends of RH4, RH3 and RH7 (upper case) match the 5′ extremity of the ADH terminator. The PCR reactions was performed using pCMV-SPORT6-CnAβ as a template. CnAβCter Δ1, Δ2, CaM were constructed by combining oligonucleotides RH6/RH4, RH6/RH3, RH6/RH7, respectively. […]

[2] = system: Raw1 cells (osteoclasts precursors); experiment: Raw cell differentiation assay (osteoclast differentiation); type: cell-based; conditions: 4 days post-transfection, absence of RANKL
Excerpt: Trx, CNA* and Peptide aptamers R5G42, C2, C7, C8 and N9 were transfected into RAW1 cells and left for four days in absence of the normal differentiation factor RANKL. CNA* is activated calcineurin A which elicits a robust differentiation response.
The inventors assessed the ability of some CNA-specific peptide aptamers to promote osteoclast differentiation via the activation of CNA. […] The differentiation state was then observed 4 days post-transfection.
Raw1 cells were transfected with the following plasmids: pCI-HA-Trx (negative control), pCI-HA CNA* (positive control for differentiation activation), pCI-HA R5G42, pCI-HA R5G42-C2, pCI-HA R5G42-C7, pCI-HA R5G42-C8 and pCI-HA R5G42-N9. The sequence of CNA* is the same as that of CNA8 (see FIG. 17, SEQ ID 42). The sequences of the R5G42 (SEQ ID 22), C2 (SEQ ID 23), C7 (SEQ ID 27), C8 (SEQ ID 28) and N9 (SEQ ID 33) aptamers is shown on FIG. 8.
One day before the transfection, Raw I cells were plated in 6-well dishes at 50 cell/mm^2. Transfection was performed with FuGene 6 Reagent (Roche) using 2 μg of each plasmid and following supplier recommendations.
8 h after transfection D-MEM was changed with α-MEM. In the control dishes α-MEM+50 ng/ml RANKL was added. After 2 days, medium was changed with a fresh medium. The differentiation state was then observed 4 days post-transfection.

Chain of CNA gamma C-terminal fragment (P48454 386-512 limits assumed): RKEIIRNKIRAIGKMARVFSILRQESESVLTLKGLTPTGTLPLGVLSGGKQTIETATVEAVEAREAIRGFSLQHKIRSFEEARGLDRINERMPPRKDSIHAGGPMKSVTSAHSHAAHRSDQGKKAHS

B1: N9: R5G42 mutant having a one amino acid change (SEQ ID 33) (protein)
chain: MVKQIESKTAFQEALDAAGDKLVVVDFSAAWCGPSAVTFAVCALGPCKMIKPFFHSLSEKYSNVIFLEVDVDDCQDVASECEVKCMPTFQFFKKGQKVGEFSGANKEKLEATINELV
modifications: Aptamer R5G42 mutant N9
In the case of B1, the yeast two-hybrid interaction [1] is reported as “not with the CNA beta and gamma C-terminal fragments”, the “two hybrid interaction phenotype against CNA compared to R5G42” value (CNA) is reported as “dramatic reduction” and the osteoclast differentiation [2] is reported as “no osteoclasts fully differentiated were detectable”.
